From patent publication US8242083B2, “Kinase substrates” (PerkinElmer Health Sciences, Inc., priority 2008, dated 2012)

Legend:
Assay type in all cases: biochemical
TYK2 = TYK2 (Homo sapiens, UniProt P29597); test: TR-FRET kinase assay, TYK2; conditions: Kinase Concentration 4 nM; 50 nM ULight-labeled substrate, 200 micromolar ATP, 2 hours
Experimental: (§1) TR-FRET kinase assays are performed under standardized conditions: various individual kinases are incubated with 50 nM of kinase substrate BRB1 labeled with the TR-FRET acceptor dye ULight (PerkinElmer) and 200 micromolar ATP in 10 μL of kinase assay buffer (50 mM HEPES pH7.5, 10 mM MgCl2, 3 mM MnCl2, 1 mM EGTA, 2 mM DTT and 0.01% Tween-20) for 2 hours at room temperature. Reactions are stopped with EDTA, and anti-phospho-tyrosine antibodies (clone PT66) labeled with the TR-FRET europium chelate donor dye are added to a final concentration of 2 nM in a final volume of 20 μL. The TR-FRET signal emitted at 665 nm is read one hour after the addition of antibodies using a TR-FRET plate reader such as the Envision® Multilabel Plate reader (PerkinElmer). The emitted signal at 665 nm is proportional to the extent of peptide phosphorylation, Control reactions indicative of background are performed excluding ATP from the reaction.
(§2) Assay conditions are identical to those used described for FIG. 1.

EphB4 = target: T1, EphB4 (Homo sapiens, UniProt P54760); test: TR-FRET kinase assay, EphB4; conditions: Kinase Concentration 0.5 nM; 50 nM ULight-labeled substrate, 200 micromolar ATP, 2 hours
T1 sequence (P54760 16-987): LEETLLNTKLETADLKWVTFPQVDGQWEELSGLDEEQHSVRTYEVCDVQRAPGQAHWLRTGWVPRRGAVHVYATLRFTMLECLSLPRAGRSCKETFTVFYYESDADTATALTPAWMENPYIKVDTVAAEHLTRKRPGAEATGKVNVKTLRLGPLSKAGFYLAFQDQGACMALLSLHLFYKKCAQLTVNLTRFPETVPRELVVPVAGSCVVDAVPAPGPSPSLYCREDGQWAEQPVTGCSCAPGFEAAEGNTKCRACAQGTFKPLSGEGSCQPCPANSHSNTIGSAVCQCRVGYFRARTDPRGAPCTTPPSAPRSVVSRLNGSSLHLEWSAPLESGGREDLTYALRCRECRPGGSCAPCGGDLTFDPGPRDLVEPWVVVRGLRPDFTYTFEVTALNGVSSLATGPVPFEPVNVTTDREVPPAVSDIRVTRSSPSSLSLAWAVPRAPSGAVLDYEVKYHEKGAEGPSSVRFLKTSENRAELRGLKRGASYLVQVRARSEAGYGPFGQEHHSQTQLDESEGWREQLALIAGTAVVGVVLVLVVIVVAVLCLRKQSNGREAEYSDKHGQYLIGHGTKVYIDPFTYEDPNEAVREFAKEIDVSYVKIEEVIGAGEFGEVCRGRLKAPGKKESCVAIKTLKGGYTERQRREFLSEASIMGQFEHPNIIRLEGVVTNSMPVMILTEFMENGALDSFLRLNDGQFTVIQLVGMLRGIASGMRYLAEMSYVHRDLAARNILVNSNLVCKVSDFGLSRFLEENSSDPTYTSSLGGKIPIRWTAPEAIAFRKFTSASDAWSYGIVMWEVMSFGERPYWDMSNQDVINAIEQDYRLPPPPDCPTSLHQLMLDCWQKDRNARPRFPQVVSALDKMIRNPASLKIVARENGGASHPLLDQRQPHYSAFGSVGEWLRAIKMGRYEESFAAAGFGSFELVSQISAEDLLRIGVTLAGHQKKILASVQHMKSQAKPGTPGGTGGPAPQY
Experimental: as §1, §2

PDGFRa = PDGFRa (Homo sapiens, UniProt P16234); test: TR-FRET kinase assay, PDGFRa; conditions: Kinase Concentration 0.5 nM; 50 nM ULight-labeled substrate, 200 micromolar ATP, 2 hours
Experimental: as §1, §2

ROS = ROS (Homo sapiens, UniProt P08922); test: TR-FRET kinase assay, ROS; conditions: Kinase Concentration 0.25 nM; 50 nM ULight-labeled substrate, 200 micromolar ATP, 2 hours
Experimental: as §1, §2

HER4 (ERBB4) = HER4 (ERBB4) (Homo sapiens, UniProt Q15303); test: TR-FRET kinase assay, HER4 (ERBB4); conditions: Kinase Concentration 0.1 nM; 50 nM ULight-labeled substrate, 200 micromolar ATP, 2 hours
Experimental: as §1, §2

FLT3 = FLT3 (Homo sapiens, UniProt P36888); test: TR-FRET kinase assay, FLT3; conditions: Kinase Concentration 0.1 nM; 50 nM ULight-labeled substrate, 200 micromolar ATP, 2 hours
Experimental: as §1, §2

Eph4A tyrosine kinase = Eph4A tyrosine kinase (Homo sapiens, UniProt P54764); test: Stability of TR-FRET signal at 665 nm in kinase assay; conditions: for Average Signal at 665 nm: Eph4A 2 nM, 50 nM labeled peptide or 200 nM labeled co-polymer, 50 micromolar ATP
Experimental: as §1
An assay comparing the stability of the random co-polymers poly-EAY, poly-EY and peptide BRB1 (SEQ ID No.3) is performed in 384-well format. Assay conditions are similar to those used in Example 1. The Eph4A tyrosine kinase is assayed at 2 nM with 50 nM of labeled peptide of SEQ ID No. 3, 200 nM labeled poly-EY or 200 nM poly-EAY and 50 micromolar ATP in 10 μL of kinase assay buffer. The reaction mixture is incubated for one hour at room temperature. Reactions are stopped with EDTA, and anti-phospho-tyrosine antibodies (clone PT66) labeled with the TR-FRET europium chelate donor dye are added to a concentration of 2 nM in a final volume of 20 μL. The TR-FRET signal emitted at 665 nm is read one, two, four, 18 and 24 hours after the addition of antibodies using a TR-FRET plate reader.

EphA4 = EphA4 (Homo sapiens, UniProt P54764); test: TR-FRET kinase assay, EphA4; conditions: Kinase Concentration 0.5 nM; 50 nM ULight-labeled substrate, 200 micromolar ATP, 2 hours
Experimental: as §1, §2

FYN = FYN (Homo sapiens, UniProt P06241); test: TR-FRET kinase assay, FYN; conditions: Kinase Concentration 0.25 nM; 50 nM ULight-labeled substrate, 200 micromolar ATP, 2 hours
Experimental: as §1, §2

Chain of Eph4A tyrosine kinase (P54764 20-986): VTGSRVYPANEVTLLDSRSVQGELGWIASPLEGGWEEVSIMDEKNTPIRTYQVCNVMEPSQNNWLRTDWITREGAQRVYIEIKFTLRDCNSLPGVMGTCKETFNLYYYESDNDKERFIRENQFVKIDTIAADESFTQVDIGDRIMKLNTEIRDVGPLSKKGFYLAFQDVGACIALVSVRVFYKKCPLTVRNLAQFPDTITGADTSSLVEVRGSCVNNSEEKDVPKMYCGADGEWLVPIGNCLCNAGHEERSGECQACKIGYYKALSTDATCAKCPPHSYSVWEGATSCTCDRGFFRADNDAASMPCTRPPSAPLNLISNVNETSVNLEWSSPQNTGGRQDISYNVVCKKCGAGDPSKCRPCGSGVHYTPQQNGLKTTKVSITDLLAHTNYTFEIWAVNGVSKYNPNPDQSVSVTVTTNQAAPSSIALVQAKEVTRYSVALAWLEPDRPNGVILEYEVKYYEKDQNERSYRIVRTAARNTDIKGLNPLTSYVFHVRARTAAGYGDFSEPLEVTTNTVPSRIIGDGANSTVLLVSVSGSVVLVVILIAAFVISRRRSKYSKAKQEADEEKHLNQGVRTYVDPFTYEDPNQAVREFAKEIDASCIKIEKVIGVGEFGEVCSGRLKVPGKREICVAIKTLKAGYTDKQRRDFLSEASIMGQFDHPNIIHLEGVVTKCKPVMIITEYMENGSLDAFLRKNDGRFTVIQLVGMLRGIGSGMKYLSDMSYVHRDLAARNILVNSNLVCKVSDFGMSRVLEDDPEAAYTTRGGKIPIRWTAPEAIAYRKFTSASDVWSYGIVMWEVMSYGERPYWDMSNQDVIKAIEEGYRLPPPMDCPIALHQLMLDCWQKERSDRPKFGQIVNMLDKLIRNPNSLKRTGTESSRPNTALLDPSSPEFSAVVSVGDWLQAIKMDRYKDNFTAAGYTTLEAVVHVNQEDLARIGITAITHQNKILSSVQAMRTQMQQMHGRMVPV
Chain of HER4 (ERBB4) (Q15303 26-1308, species assumed): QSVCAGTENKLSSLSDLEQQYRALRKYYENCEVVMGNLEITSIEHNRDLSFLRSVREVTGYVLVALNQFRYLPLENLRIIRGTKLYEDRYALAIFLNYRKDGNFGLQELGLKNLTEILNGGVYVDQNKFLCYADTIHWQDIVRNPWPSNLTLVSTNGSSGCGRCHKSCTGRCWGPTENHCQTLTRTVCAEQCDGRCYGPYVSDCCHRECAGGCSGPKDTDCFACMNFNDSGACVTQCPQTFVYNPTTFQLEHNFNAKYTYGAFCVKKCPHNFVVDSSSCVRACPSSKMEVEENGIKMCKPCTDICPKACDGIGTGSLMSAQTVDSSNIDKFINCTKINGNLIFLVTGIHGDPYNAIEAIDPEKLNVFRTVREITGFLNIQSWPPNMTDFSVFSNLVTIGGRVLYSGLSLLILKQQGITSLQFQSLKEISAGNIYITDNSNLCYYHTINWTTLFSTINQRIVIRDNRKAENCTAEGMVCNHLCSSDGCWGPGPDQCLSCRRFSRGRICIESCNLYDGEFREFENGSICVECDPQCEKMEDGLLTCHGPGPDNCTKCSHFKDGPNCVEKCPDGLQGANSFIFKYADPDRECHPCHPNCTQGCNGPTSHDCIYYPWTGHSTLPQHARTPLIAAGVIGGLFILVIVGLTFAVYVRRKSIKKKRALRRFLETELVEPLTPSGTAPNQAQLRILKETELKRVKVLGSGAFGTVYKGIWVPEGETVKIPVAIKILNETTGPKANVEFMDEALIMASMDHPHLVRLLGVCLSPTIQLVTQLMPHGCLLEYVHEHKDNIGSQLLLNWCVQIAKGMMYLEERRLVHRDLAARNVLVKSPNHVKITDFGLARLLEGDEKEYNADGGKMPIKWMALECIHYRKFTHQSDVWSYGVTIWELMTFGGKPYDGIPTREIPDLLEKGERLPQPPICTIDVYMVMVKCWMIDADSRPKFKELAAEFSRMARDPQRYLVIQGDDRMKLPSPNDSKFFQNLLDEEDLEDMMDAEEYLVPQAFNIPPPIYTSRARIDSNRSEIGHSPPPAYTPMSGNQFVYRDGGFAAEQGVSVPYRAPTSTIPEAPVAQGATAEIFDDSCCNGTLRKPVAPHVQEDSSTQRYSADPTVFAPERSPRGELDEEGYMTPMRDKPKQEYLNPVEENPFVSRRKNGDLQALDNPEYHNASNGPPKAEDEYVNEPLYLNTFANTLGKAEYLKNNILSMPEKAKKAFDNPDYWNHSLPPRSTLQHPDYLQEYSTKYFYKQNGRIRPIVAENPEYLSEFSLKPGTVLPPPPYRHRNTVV
Chain of TYK2 (P29597 whole entry, species assumed): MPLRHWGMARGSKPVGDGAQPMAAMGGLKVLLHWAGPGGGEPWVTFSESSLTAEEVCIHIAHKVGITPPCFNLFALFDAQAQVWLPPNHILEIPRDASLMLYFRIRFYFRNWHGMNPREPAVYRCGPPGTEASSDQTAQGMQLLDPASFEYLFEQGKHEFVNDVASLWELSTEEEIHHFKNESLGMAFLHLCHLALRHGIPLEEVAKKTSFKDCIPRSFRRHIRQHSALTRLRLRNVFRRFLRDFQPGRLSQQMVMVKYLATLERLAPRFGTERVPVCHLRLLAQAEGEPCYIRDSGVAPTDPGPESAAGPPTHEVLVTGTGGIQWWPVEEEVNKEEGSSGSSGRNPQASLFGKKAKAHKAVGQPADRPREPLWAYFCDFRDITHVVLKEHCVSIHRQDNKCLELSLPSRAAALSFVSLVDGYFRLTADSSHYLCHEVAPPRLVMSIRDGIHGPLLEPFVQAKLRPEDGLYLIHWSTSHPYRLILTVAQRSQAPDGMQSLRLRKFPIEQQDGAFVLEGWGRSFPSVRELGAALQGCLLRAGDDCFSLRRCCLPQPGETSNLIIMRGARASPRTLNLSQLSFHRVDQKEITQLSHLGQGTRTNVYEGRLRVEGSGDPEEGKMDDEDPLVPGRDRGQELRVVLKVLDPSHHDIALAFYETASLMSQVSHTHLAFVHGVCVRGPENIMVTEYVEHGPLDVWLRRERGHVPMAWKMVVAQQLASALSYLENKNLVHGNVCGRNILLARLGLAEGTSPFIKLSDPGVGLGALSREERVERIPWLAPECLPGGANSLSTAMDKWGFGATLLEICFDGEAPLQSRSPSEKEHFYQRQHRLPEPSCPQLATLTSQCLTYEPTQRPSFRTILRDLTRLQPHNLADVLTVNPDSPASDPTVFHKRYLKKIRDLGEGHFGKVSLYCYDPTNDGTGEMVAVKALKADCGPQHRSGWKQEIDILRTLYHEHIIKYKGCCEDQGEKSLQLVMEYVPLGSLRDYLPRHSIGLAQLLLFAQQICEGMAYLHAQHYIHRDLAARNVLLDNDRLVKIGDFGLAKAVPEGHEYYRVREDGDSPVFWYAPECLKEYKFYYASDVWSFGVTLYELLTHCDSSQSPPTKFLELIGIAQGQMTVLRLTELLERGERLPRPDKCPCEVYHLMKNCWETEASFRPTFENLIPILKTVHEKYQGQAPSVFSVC
Chain of FYN (P06241 whole entry, species assumed): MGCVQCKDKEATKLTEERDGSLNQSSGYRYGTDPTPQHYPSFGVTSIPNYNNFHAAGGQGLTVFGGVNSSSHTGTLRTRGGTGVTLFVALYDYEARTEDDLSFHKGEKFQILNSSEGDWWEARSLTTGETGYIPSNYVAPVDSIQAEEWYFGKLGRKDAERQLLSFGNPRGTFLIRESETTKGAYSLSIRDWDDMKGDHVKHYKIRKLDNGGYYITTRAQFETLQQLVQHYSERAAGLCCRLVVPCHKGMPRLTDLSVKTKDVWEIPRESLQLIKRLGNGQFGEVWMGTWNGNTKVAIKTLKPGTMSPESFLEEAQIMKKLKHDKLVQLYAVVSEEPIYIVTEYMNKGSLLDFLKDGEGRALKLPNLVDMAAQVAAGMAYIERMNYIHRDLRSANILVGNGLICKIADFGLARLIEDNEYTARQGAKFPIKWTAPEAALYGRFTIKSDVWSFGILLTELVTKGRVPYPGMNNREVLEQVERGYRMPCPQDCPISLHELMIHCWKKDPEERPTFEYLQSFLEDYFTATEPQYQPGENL
Chain of PDGFRa (P16234 24-1089, species assumed): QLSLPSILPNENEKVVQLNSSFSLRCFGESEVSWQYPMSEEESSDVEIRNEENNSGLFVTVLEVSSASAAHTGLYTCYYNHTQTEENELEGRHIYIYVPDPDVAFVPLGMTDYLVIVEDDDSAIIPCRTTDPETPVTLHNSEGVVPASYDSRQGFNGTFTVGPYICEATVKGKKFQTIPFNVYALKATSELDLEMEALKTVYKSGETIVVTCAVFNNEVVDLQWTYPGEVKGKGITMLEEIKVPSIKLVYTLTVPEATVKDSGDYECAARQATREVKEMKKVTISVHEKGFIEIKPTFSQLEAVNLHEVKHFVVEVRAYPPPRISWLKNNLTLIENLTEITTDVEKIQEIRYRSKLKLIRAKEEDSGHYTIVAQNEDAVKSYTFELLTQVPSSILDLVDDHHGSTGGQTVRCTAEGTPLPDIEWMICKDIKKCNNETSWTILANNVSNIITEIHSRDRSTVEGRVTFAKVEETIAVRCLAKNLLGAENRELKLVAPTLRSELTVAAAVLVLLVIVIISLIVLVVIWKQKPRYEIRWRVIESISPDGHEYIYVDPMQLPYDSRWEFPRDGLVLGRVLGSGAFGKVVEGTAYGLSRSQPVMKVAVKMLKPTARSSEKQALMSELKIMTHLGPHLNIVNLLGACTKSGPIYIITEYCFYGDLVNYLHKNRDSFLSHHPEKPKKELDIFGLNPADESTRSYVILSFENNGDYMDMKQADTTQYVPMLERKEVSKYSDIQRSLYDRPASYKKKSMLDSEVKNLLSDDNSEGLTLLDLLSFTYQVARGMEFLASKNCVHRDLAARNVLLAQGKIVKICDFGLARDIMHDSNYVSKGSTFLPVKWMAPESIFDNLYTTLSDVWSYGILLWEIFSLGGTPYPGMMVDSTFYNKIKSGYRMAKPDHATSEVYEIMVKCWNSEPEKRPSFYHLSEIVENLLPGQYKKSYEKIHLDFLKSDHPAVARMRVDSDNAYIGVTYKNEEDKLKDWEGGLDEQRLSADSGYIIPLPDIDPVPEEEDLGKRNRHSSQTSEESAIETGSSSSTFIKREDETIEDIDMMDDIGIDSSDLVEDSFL
Chain of EphA4 (P54764 20-986, species assumed): as the sequence (P54764 20-986) above

C AYE AYE AYE K EYA EYA EYA K AYA EYE R (CAYEAYEAYEKEYAEYAEYAKAYAEYER; tyrosine kinase substrate peptide) [BRB1]
Signal to Noise ratio with BRB1 Peptide (TYK2): 7.3
Signal to Noise ratio with BRB1 Peptide (EphB4): 29.8
Signal to Noise ratio with BRB1 Peptide (PDGFRa): 8.0
Signal to Noise ratio with BRB1 Peptide (ROS): 24.5
Signal to Noise ratio with BRB1 Peptide (HER4 (ERBB4)): 3.1
Signal to Noise ratio with BRB1 Peptide (FLT3): 25.9
Average Signal at 665 nm (Eph4A tyrosine kinase; Incubation 1 h after addition of antibodies): 134156
Average Signal at 665 nm (Eph4A tyrosine kinase; Incubation 18 h after addition of antibodies): 117226
% Decrease of average signal at 665 nm (Eph4A tyrosine kinase; Incubation 18 h versus 1 h): 12.6%
Average Signal at 665 nm (Eph4A tyrosine kinase; Incubation 24 h after addition of antibodies): 115534
% Decrease of average signal at 665 nm (Eph4A tyrosine kinase; Incubation 24 h versus 1 h): 13.9%
% Decrease of average signal at 665 nm (Eph4A tyrosine kinase; Incubation 24 h versus 1 h, listed as SEQ ID No. 3): 14%
Stability of specific TR-FRET signal at 665 nm over time (Eph4A tyrosine kinase; after addition of europium-labeled anti-phospho-tyrosine antibody): more stable
Signal to Noise ratio with BRB1 Peptide (EphA4): 31.5
Signal to Noise ratio with BRB1 Peptide (FYN): 25.9
